B1: R217 IgG (antibody, V domains shown)
VH: VQLQQSGPELVKPGTSVKISCKTSGYTFTENTMHWVKQSHGESLDWVGGINTDNGGTTYSQKFKGKATLTVDKSSSTAYMELRSLTSEDSAVYYCSTGYDAMDYWGQGTSVTVSS
VL: NIVLTQSPASLAVSLGQRATISCRASKGVDSYGNSFMHWYQQRPGQPPKLLIYLASHLESGVPARFSGSGSRTDFTLTIDPVEADDAATYYCQQNNEDPFTFGSGTKLEIK
notes: mouse IgG1 heavy chain; its Fab part as the heavy chain of m3 (deposited structure); as the light chain of m3; IgG1 mouse monoclonal antibody; also called R217 antibody
B2: R218 IgG (antibody, V domains shown)
VH: EVQLQQSGAELVKPGASVKLSCTASGFNIKDNYMHWVKQRPEQGLEWIGRIDPANGNTKYDPKFQGKATITADTSSNTAYLQLSSLTSEDTAVYYCARHYDGYFLYYFEYWGQGTTLTVSS
VL: DIQMTQTTSSLSASLGDRVTITCRAGQDISNYLNWYQQKPDGTVKLLIYYTSRLHSGVPSRFSGSGSGTDYSLTISNLEQEDIATYFCQQGSTFPWTFGGGTKLEIK
notes: mouse IgG1 heavy chain; its Fab part as the heavy chain of m5 (deposited structure); as the light chain of m5; IgG1 mouse monoclonal antibody; also called R218 antibody

Molecular target: T1, wildtype PfEBA-175 RII expressed on the surface of HEK293T cells (Plasmodium falciparum, strain not …, UniProt Q8IBE8)
T1 construct: PfEBA-175 of P. falciparum, region II; The pRE4 vector supplies the signal and membrane anchor for surface display (surmise); also called wildtype RII; source: HEK293T, transfected (pRE4 vector), on the cell surface; not shown: GFP, C-terminal, kept
Assay: immunostaining of cells or tissue; DBL proteins on the surface of transfected HEK293T cells, probed with 10 µg/ml R217 or R218, then Alexafluor-546 anti-mouse IgG1; fluorescence microscopy
Settings: one partner purified

Binder | binding result
B1 | binds
B2 | binds
